This is an account of results in patent publication US20140056964A1, “GRANZYME B INHIBITOR COMPOSITIONS, METHODS AND USES FOR PROMOTING WOUND HEALING” (THE UNIVERSITY OF BRITISH COLUMBIA, priority 2010, published 2014).

This test relates to wild type C57BL/6 mice. The experiment in a line: full thickness skin wound in mice, decorin immunohistochemistry of closed wound tissue. The test is classed as in vivo, mouse. As to conditions: 1 cm full thickness back wound, 60 μl applied directly onto the wound, 16 days. As to the method: As depicted in FIG. 23, decorin distribution is impacted by serpina3n in closed wound tissue. Seven week old wild type C57BL/6 mice were given a 1 cm diameter full thickness wound on their backs. Mice were then given either saline (upper panels) or the Granzyme B inhibitor, serpina3n (lower panels), by applying 60 μl of the appropriate solution directly onto the wound immediately following the wounding procedure. Wounds were allowed to heal for 16 days, at which point mice were sacrificed and the closed wound tissue harvested. […] Increased decorin throughout the newly formed dermis thus provides more organized collagen, less scarring and increased tensile strength.

B1: serpina3n: the Granzyme B inhibitor, serpina3n; Serpina3n is also known as SerpinA3 (protein, UniProt Q91WP6 21-418, looked up)
Serine protease inhibitor A3N: FPDGTLGMDAAVQEDHDNGTQLDSLTLASINTDFAFSLYKELVLKNPDKNIVFSPLSISAALAVMSLGAKGNTLEEILEGLKFNLTETSEADIHQGFGHLLQRLNQPKDQVQISTGSALFIEKRQQILTEFQEKAKTLYQAEAFTADFQQPRQAKKLINDYVRKQTQGMIKELVSDLDKRTLMVLVNYIYFKAKWKVPFDPLDTFKSEFYAGKRRPVIVPMMSMEDLTTPYFRDEELSCTVVELKYTGNASALFILPDQGRMQQVEASLQPETLRKWKNSLKPRMIDELHLPKFSISTDYSLEDVLSKLGIREVFSTQADLSAITGTKDLRVSQVVHKAVLDVAETGTEAAAATGVKFVPMSAKLYPLTVYFNRPFLIMIFDTETEIAPFIAKIANPK
Regarding B1, the “decorin distribution (immunohistochemistry) in newly formed dermis” value is recorded as “intense decorin staining near the dermal-epidermal junction but also demonstrated intense decorin staining deeper into the dermis”.
